Assay results: patent publication US20050234225A1

Assays:
cell-surface KDR (human) = cell-surface KDR (human) (UniProt P35968); test: cell-based or functional assay
[1] = molecular target: KDR-alkaline phosphatase (AP) soluble fusion protein (human) (UniProt P35968); test: BIAcore SPR, KDR immobilized
[2] = molecular target: KDR-alkaline phosphatase (AP) soluble fusion protein (human) (UniProt P35968); test: competitive blocking ELISA: antibody pre-incubated with KDR-AP, then binding of KDR-AP to immobilised VEGF165, A405

KDR-alkaline phosphatase (AP) soluble fusion protein (human), sequence (P35968 20-764): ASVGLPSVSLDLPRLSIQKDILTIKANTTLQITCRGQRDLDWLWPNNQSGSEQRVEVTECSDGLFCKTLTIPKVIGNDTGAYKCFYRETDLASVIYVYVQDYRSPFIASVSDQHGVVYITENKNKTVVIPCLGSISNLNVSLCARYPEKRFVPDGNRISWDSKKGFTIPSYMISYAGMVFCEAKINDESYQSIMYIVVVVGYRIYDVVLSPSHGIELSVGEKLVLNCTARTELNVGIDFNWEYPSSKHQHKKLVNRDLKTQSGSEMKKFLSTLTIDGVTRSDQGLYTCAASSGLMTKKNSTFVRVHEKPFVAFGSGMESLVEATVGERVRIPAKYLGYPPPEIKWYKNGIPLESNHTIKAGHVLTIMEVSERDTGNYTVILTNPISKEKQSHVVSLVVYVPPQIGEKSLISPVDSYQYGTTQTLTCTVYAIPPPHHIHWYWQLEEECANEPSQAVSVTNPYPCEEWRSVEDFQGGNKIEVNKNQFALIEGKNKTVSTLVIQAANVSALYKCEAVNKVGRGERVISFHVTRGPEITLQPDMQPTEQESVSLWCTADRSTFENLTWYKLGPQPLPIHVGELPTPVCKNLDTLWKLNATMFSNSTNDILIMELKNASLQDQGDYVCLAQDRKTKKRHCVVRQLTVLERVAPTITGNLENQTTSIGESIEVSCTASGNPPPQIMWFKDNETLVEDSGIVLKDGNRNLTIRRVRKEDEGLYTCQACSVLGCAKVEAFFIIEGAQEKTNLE
cell-surface KDR (human), sequence (P35968 20-1356): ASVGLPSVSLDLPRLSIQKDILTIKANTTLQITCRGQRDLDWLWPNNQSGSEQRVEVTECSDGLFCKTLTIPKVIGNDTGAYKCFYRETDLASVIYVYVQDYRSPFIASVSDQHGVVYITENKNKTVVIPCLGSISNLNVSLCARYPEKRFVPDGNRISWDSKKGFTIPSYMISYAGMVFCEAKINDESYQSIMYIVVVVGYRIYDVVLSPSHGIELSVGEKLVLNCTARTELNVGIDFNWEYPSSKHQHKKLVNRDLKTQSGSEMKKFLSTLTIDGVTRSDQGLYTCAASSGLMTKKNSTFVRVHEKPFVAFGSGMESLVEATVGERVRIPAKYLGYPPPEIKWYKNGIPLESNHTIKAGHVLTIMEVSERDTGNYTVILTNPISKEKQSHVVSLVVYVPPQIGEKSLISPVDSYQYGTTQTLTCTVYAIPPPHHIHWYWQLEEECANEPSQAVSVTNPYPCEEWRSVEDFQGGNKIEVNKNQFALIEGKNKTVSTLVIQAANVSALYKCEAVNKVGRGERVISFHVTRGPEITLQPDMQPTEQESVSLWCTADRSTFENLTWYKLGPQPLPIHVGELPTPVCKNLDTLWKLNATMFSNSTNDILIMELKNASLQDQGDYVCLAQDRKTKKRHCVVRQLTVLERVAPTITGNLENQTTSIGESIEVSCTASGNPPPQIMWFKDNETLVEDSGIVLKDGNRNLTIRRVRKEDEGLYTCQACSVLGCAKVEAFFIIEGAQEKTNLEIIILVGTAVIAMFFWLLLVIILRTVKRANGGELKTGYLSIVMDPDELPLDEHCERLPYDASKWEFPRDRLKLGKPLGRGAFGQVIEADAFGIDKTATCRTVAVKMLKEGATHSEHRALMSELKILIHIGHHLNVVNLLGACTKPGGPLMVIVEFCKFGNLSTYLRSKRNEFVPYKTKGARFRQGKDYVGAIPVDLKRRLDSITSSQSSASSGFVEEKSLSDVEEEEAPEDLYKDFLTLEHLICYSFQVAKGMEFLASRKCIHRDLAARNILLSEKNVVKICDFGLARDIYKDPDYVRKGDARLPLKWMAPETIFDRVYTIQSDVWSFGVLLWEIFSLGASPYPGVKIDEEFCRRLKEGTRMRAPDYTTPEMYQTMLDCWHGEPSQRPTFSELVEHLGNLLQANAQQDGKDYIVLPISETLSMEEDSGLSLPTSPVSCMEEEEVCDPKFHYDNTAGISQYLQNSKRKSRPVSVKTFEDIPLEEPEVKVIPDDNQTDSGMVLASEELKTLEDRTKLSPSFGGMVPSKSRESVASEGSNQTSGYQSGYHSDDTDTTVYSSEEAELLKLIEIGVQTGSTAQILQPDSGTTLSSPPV

ED50 of inhibition of VEGF-stimulated [3H]-TdR incorporation in HUVEC (cell-surface KDR (human)): 1.5 nM
Kd [1]: 0.27 nM
fold change of Kd against its Fab counterpart [1]: 5 fold
koff [1]: 3.7e-05 s⁻¹
kon [1]: 134000 M⁻¹ s⁻¹
IC50 (read off the curve) [2]: 1 nM
Substance: IMC-1C11 (antibody)
